Consider two molecules from paper PMC3479173.

Positions count from the first letter of the chain named.

The target in data set [1] is T1, THAP1 THAP domain N12K (human, UniProt Q9NVV9 1-81, N12K).
T1 sequence: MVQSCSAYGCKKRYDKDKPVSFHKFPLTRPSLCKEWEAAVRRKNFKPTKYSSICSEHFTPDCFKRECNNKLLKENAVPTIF
Description: fluorescence quenching.

Data set [2] deals with T2, THAP1 THAP domain WT (human, UniProt Q9NVV9 1-81).
T2 sequence: T1 sequence with K12N
Description: fluorescence quenching.

For data set [3], the target named is T1, THAP1 THAP domain N12K. Kind of data set: ITC.
In data set [4] the target is T2, THAP1 THAP domain WT. Description: ITC.
In data set [5] the target is T3, THAP1 THAP domain F81L (human, UniProt Q9NVV9 1-81, F81L).
T3 sequence: T1 sequence with K12N, F81L
Kind of data set: fluorescence quenching.

The target in data set [6] is T4, THAP1 THAP domain Y8C (human, UniProt Q9NVV9 1-81, Y8C).
T4 sequence: T1 sequence with Y8C, K12N
Description: fluorescence quenching.

Data set [7] has as its target T5, THAP1 THAP domain D17G (human, UniProt Q9NVV9 1-81, D17G).
T5 sequence: T1 sequence with K12N, D17G
Description: fluorescence quenching.

The target in data set [8] is T3, THAP1 THAP domain F81L. Description: ITC.
Data set [9] has as its target T4, THAP1 THAP domain Y8C. Description: ITC.

B1: 14-bp non-specific DNA (ns) (dsDNA)
DNA 1: GATTTGCATTTTAA
DNA 2: TTAAAATGCAAATC
With B1, the Kd in data set [1] came out at 400 ± 65 nM; in data set [2] it was 1800 ± 150 nM; in data set [3], 1750 ± 500 nM; in data set [4] it was 8930 ± 1280 nM.

B2: RRM1 16-bp DNA probe (dsDNA)
DNA 1: GCTTGTGTGGGCAGCG
DNA 2: CGCTGCCCACACAAGC
Consider B2, for which the Kd stood at 100 ± 10 nM in data set [5]; 230 ± 20 nM in [6]; 25 ± 5 nM in [7]; 150 ± 10 nM in data set [2]; 700 ± 60 nM in [8]; 510 ± 100 nM in data set [9]. The molecule further yielded a Kd in [4] of 540 ± 190 nM.
